Measurements from the DeepSol protein solubility set.

Experiment: soluble on expression in E. coli; label from the status in PepcDB or PDB records

Soluble on expression in E. coli, not soluble:
MGSDKIHHHHHHMGHSLLFAVDVRPPHDVGVDGPRTASMCQNEVVADLKQRRPSVEQIIRIGIDTSKHVFQLHGVNAAEEPVLRKKLRRKEVVALFEKLSPTVVAIEACGGSHHWARLLQSFGHEVKLIPPQYVKPYVKRGKNDTADAEALCEAMSRPTMRFVPVKTAKQQAALMLVGLRDRLIRNRTQLANAIRGYAAEYGLIAARGMCKIEPLLERIAADKMLPDLARELFALHAKEYAQLQTQLKDVDAKLMAWHRAEACSQRLAQIPGVGPIGASLLVMKTPAPETFRSARHFAAWLGLTPKDHSTAGRVRLGVITRAGDEALRSVLVAGATAVIRHVRRGRGAVSPWLVDLLKRKPPKLAAVALANKIARIAWKLMVSGEIYGAKPMPPASARAA, MGSDKIHHHHHHMGKFDQITYFIAVVEEHGFAAAARKFGVSTAAVSRQIARLEAELKAELLVRTTRKLSLTDIGARYYQQCKKTLLELNEAEIAIANSRNEAVGILNVTSSRYFAMRFLLPYLPEFMELNPKLQIKIELAERFPDLAQENVDVLFGVSMEGPPELVRKRVSTTRYVLCASPDYLAKNGIPKTPSELGKHRYITHSMRNPDNLVTFKDNEQIYVEPVLWLNDSRALCECALLGMGIIKLHEYIVTEALQDGRLIEVLPEFQESSLSVYLYYQASRYLQPKIRRFIDFFTK, MGSDKIHHHHHHMGKTIAIMQPYFLPYIGYWQLMKASDIFVVYDNIKYTKKGWVNRNRYLSNGKIKLFSIPLMKASNSLQIKDRYLAETYKLESAKTLRKIKDAYAVSKNFHPCFNLIERCFNANENNLFEFIYNSVAIFKDVLGLRAQLVVSSSIACDHSLNSAERVKAICTELGAESYINPVGGEHLYERDDFQKLGINLRFLKPRIEEYPQLSCQFQPYMSILDICMSCTFDEVKNNII, MGSDKIHHHHHHMGKYQDSKKVVRNYFEALENATGDEVENVLKQHMKSDYNWKGVYPFREQEGTENVADVFWKPLKKSLSNMQRRQDIFIAGTNEIDNSEWVMSMGHFMGLFDNDWLGIKHTRKMISLRYAEFNCVQDGKIAKTGLFVDIIGFMIQAGVNPLPPQTGSYFVYPGPIDHNGLLFEDADEVEGVKTLALVNKMVDDLSELNESGAMGCPPEILEKSWAKDMIWYGPGGIGASYTIPRYQEQHQLPFRNNLKGKTFNGHVCRFAEGNFACFFGWPNLTNVPCGGFLGLPGGEVKADMQVVDVYYRKGDKLQENWVLIDIPYWLKQQGLDILERTKSIFNA, MGSDKIHHHHHHMGLMDFRPYFRVTVDGKDISGVLAPRLVSLRVTDGAGVQSDTVEIRLSDTNLFQRISEPRAGAEIEVWLGFPLSLSYMGLFVADTIETGGPPDTVTITGTASVNGETTSGKTALTDQKKRSWPEGTTIGAMVEKIASEHGLIAMVSESLRAEALPHIDQIDESDINLLSRIARDFDAIAKPGNGRLIMTRRGESLTASGQPLPVVRVDKSSVTEWRYRNSLRERVGRVIATTQDLEAGQPVEVEAGQGEPALRLRRRFPDKVTARKTAESELKRLGRAGRSLSITMPGNSDIVAEARLSASGFRSYIDGEWLVSRATHILDSGGYRTAITAEPVE, MGSDKIHHHHHHMGPINFEKAKKEREQAVIARLIDIRKAQQEYRSLHHGMYTEHFDTLIDFVKNQKLPFVMKVGQLTDDQLESGLTEKKAMAIINKAKKTGKYDEVKKNGLENFKRDTMWVAVMDTIYPKGFNADSMKYIPYGNGAIFEMNVKNDTAKSGAPVYLFEVKAPYETYLGGLDRQEIINLKDLNEKLGRYSGLMVGSIDNPNNGAGNWE, MGSDKIHHHHHHMGPLSGITILDLTSVLMGPYATQTLADMGADVVKVESPEGDIVRHIGPGRTPGMGGMFLNTNRGKRSIVIDLKQNDGREALLRLAARANALIYNVRPQAMARLGLSYEQVAAVNPGIVYLGAFGYGQDGPYAAKPAYDDLIQGAAGVPTLLAAAGDGTPRYVPITIADRIVGLMAVNAMLGALMHQQRTGEGQRIDVPMFESMASFVLVDHLGGLTYEPPLDHGGYARLLSRSRKPYRTSDGYLCVLIYNDKQWRSFFEAIDRTDFLAQPRFANHAARTRHIDEIYEEIGAIFLTRTTAEWRELLERADIPVMPMHSMESILDDPHLRAVGFFETVEHPVEGRVRQMKVPSTWSATQPQPGGPAPTLGGNGRDILTEAGFSSAEIERLGHSKAVHLPD
